Literature values, collected in article PMC3621282.

Molecular target: VEGFR-2 (Homo sapiens) (UniProt P35968)
UniProt P35968, sequence (P35968 20-1356): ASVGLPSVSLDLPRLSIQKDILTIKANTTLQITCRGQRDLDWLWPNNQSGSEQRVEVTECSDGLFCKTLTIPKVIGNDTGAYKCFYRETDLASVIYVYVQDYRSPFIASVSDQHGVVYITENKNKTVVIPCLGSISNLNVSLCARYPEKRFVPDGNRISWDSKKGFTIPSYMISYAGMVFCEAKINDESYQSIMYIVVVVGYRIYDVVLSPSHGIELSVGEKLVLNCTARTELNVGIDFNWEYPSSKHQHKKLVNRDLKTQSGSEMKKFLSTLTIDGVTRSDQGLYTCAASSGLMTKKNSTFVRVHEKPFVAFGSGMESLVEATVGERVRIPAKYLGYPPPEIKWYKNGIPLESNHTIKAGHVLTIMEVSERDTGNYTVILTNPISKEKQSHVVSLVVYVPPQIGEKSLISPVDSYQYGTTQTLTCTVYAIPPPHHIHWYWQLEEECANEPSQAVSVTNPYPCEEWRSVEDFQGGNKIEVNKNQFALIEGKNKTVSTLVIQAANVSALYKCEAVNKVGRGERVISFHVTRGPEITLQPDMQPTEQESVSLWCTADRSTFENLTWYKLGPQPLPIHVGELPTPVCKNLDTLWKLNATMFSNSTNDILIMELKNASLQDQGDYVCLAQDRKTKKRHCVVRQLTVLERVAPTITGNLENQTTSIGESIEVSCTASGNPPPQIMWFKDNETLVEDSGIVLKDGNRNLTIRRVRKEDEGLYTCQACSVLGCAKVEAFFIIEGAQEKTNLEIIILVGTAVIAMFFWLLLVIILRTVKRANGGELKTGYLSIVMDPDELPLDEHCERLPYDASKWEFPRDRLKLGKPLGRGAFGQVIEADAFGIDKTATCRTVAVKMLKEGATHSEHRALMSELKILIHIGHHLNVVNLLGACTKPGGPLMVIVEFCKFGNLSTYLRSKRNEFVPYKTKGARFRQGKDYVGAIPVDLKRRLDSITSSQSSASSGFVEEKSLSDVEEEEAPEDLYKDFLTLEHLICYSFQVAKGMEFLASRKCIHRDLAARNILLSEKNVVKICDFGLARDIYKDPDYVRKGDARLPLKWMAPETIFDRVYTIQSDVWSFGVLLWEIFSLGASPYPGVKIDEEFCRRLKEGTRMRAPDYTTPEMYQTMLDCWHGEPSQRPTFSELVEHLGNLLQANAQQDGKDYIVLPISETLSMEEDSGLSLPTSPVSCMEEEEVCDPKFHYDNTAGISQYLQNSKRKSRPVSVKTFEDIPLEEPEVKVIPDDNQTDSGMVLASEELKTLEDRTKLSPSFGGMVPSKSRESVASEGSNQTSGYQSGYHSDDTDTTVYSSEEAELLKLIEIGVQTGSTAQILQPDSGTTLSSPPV

Kd: 0.1 nM
Substance: VEGF (from UniProt P15692)
